From patent US10266565B2, “Peptide mimetic ligands of polo-like kinase 1 polo box domain and methods of use” (The United States of America, as represented by the …, priority 2011, dated 2019)
Entries after “also recorded” stand apart in the source; their conditions may differ. Where a SMILES comes first, the peptide text is derived from it. Where no end group is shown, it is not given here. [ ]: non-standard residue; d: D form. The star is where a group is joined. His(π-(CH2)8Ph) = N[C@@H](Cc1cncn1CCCCCCCCc1ccccc1)C(=O)O; Abu(3R-Me,4-PO3H2) = C[C@@H](CP(=O)(O)O)[C@H](N)C(=O)O; CH3O(CH2CH2O)7C2H4CO = COCCOCCOCCOCCOCCOCCOCCOCCC(=O)*; pT = C[C@@H](OP(=O)(O)O)[C@H](N)C(=O)O; PEG = not defined here

Assays:
Plk2 = target: T1, Plk2 (Mus musculus, UniProt P53351, K108M); experiment: Peptide pull-down assay with bead-immobilized peptides, Plk2; type: binding
T1 construct: expressed in transfected cells
T1 sequence (P53351 whole entry K108M): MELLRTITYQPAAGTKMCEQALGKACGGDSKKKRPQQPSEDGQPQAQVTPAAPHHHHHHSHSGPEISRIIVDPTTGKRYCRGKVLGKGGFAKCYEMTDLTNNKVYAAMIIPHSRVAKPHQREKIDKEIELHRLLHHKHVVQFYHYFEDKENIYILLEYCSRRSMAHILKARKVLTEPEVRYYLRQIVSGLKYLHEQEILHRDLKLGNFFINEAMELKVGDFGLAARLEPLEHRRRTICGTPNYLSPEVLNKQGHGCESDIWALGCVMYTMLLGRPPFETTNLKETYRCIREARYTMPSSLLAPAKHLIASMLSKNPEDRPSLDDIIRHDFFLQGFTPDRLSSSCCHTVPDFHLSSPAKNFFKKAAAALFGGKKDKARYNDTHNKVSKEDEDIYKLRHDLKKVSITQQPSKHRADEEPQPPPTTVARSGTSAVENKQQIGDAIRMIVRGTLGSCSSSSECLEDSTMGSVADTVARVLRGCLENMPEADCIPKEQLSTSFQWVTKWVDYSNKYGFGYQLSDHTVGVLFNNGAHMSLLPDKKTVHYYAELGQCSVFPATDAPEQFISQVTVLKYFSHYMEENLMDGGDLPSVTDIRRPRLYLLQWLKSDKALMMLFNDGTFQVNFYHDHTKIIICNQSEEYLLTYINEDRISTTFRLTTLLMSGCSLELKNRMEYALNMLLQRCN
Method: After incubating the cell lysates prepared in TBSN buffer {20 mM Tris-Cl (pH8.0), 150 mM NaCl, 0.5% Np-40, 5 mM EGTA, 1.5 mM EDTA, 20 mM p-nitrophenylphosphate and protease inhibitor cocktail (Roche, Nutley, N.J.)} with the bead-immobilized ligands for 2 h at 4° C., the ligand-associating proteins were precipitated, washed, boiled in sodium dodecyl sulfate (SDS) sample buffer, separated by 8% SDS-polyacrylamide gel electrophoresis (PAGE), and then subjected to immunoblotting analysis with anti-Flag antibody and the enhanced chemilunimescence (ECL) detection system (Pierce). The same membrane was also stained with Coomassies (CBB). Signal intensities were quantified using Image J program.
To investigate the binding specificity of p-T78 peptides to various Plks, Flag-Plk1 (K82M), Flag-Plk2(K108M)3 or Flag-Plk3(K52R) (a gift of Wei Dai, New York University School of Medicine, NY) construct was first transfected into HeLa cells. Cellular lysates were prepared as above, mixed, and then incubated in TBSN buffer with the immobilized peptides indicated.

HeLa cells [1] = experiment: Direct treatment of cultured HeLa cells (mitotic arrest, apoptotic cell death, Plk1 localization); type: cell-based; settings: 200 μM
Plk1 = target: T2, Plk1 (Homo sapiens, UniProt P53350); experiment: Peptide pull-down assay with bead-immobilized peptides, Plk1; type: binding; settings: for Plk1 binding / precipitation in pull-down, in words: mitotic cell lysates
T2 construct: we used total lysates prepared from mitotic HeLa cells; endogenous in cells; host or cells: mitotic (nocodazole-arrested) HeLa cells
T2 sequence (P53350 2-603): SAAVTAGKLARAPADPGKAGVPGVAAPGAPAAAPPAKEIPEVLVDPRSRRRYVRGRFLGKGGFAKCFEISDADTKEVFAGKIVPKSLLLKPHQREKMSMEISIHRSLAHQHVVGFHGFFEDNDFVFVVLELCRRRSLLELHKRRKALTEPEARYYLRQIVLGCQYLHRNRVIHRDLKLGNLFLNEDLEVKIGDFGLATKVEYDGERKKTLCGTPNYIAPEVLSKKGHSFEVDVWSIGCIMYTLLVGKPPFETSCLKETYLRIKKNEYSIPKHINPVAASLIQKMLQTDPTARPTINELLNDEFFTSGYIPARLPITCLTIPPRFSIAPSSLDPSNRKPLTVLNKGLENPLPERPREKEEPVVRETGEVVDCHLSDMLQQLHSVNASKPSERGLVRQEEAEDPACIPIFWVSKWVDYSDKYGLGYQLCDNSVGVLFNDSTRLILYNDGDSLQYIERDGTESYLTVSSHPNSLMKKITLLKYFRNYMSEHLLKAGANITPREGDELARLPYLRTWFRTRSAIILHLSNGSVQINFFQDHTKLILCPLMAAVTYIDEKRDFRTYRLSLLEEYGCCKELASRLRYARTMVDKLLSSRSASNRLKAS
Method: For Plk1 pull-down assays with immobilized peptides, we used total lysates prepared from mitotic HeLa cells. […] Cells treated with 200 ng/ml of nocodazole for 16 h were lysed in TBSN buffer {20 mM Tris-Cl (pH8.0), 150 mM NaCl, 0.5% NP-40, 5 mM EGTA, 1.5 mM EDTA, 0.5 mM Na3VO4, 20 mM p-nitrophenyl phosphate, and protease inhibitor cocktail (Roche, Nutley, N.J.)}, and then clarified by centrifugation at 15,000×g for 20 min at 4° C. The resulting lysates were incubated with bead-immobilized peptides (40 μM per binding) for 2 h, precipitated, washed, and then boiled in sodium dodecyl sulfate (SDS) sample buffer to elute the associated proteins. Samples were separated by 10% SDS-polyacrylamide gel electrophoresis (PAGE), and then either stained with silver or transferred to PVDF membrane for immunoblotting analysis with anti-Plk1 antibody using the enhanced chemiluminescence (ECL) detection system (Pierce). […]

Plk1 PBD = Plk1 PBD (Homo sapiens, UniProt P53350); experiment: Isothermal titration calorimetry with recombinant Plk1 PBD; type: binding
Plk1 PBD, sequence (P53350 326-603): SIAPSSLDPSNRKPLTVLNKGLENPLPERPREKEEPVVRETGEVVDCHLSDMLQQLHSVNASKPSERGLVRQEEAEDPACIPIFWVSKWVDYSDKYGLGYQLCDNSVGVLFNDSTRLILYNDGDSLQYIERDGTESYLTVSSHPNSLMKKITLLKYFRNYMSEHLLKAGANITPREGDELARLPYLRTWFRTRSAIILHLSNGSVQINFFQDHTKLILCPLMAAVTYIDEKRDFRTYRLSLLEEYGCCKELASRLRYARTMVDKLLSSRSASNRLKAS

[2] = target: Plk1 PBD-p-Cdc25C interaction (Homo sapiens, UniProt P53350); experiment: Competition of the PBD-p-Cdc25C interaction in mitotic HeLa lysates; type: binding; settings: GST-PBD
Plk1 PBD-p-Cdc25C interaction, sequence (P53350 326-603 limits assumed): as the sequence (P53350 326-603) above
Method: For p-Cdc25C pull-down assays, either bead-bound GST-PBD or the corresponding GST-PBD(H538A K540M) mutant was incubated with mitotic HeLa lysates in TBSN buffer supplemented with 2 mM DTT. To test the ability of the indicated peptides to compete the PBD-p-Cdc25C interaction, lysates were pre-incubated with GST-PBD for 1.5 h prior to the addition of the indicated peptides. Lysates were then incubated for additional 1.5 h, washed in the binding buffer, and then analyzed. For competition of the interaction between p-Cdc25C and endogenous Plk1, mitotic lysates were prepared in TBSN and incubated with the indicated peptides for 1 h before subjecting to immunoprecipitation with anti-Plk1 antibody.

Plk2 PBD = target: T3, Plk2 PBD (Homo sapiens, UniProt Q9NYY3); experiment: Isothermal titration calorimetry with recombinant Plk2 PBD; settings: titrated into Plk2 PBD
T3 sequence (Q9NYY3 373-685): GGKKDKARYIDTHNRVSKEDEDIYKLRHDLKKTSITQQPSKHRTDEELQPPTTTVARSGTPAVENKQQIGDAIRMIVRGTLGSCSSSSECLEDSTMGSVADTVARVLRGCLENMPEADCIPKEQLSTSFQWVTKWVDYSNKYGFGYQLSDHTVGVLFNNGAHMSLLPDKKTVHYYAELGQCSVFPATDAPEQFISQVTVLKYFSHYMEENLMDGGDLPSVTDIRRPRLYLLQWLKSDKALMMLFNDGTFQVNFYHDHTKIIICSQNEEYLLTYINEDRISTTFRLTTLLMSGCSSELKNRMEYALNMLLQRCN

HeLa cells [3] = experiment: Microinjection of peptides into HeLa cells; type: cell-based; settings: for Plk1 localization at centrosomes and kinetochores: microinjection; for mitotic arrest / cell cycle effect, in words: peptide introduced into the cells
Method: HeLa cells were cultured as subconfluent monolayers under the conditions recommended by American Type Culture Collection (Manassas, Va.). […] No mitotic exit was observed during the period of 10 min BMI-1026 treatment. For microinjection experiments with the Pmab-containing mimetic peptides, cells were arrested for 16 h with 2.5 mM thymidine (Sigma) and released into fresh medium. Two hours after release from the S phase block, the indicated peptides (2.5 mM stock in PBS) were microinjected into the cells using Eppendorf® Transjector 5246 (Eppendorf®, Westbury, N.Y.) at the 150 hPa pressure level and the 0.5 second injection time. All the cells in a single grid were injected and then further incubated to monitor cell cycle progression. For microinjection experiments with the F2Pmab-containing mimetic peptides, cells were arrested with 2.5 mM thymidine for 16 h twice with a 9 h release interval, and then released into fresh medium. Seven hours after release from the G1/S phase block, the indicated peptides (4 mM stock in PBS) were microinjected similarly as above. Where indicated, peptides containing the final concentration of 30 ng/μl of pEGFP-C1 vector (Clontech®, Mountain View, Calif.) were used to visualize the injected cells.
Four hours after microinjection, cells were fixed and subjected to immunostaining analyses as described below.
Similar methods were used for the experiments shown in FIG. 16 using the peptides indicated. HeLa cells were arrested at the G1/S boundary by double thymidine treatment and released into fresh medium. […] Co-injected EGFP plasmid provided a convenient marker to identify the microinjected cells.
Indirect immunostaining was carried out as described previously (5) using anti-Plk1 antibody (Santa Cruz Biotechnologies, Santa Cruz, Calif.) and anti-CREST antiserum (Cortex Biochem, San Leandro, Calif.). All the appropriate secondary antibodies were purchased from Jackson ImmunoResearch Laboratories, Inc. (West Grove, Pa.). Biotinylated F2Pmab-positive cells were detected by co-staining with FITC-conjugated Streptavidin (Invitrogen®, Carlsbad, Calif.). Chromosomes were visualized with 4′,6-diamidino-2-phenylindole (DAPI) (Sigma). Digital images were collected with a Zeiss LSM510 confocal microscope. For the quantification of the fluorescence signal intensities, images of unsaturated fluorescence signals were acquired with the same laser intensity at 512×512 pixels and 12-bit resolution. Fluorescence intensities for localized signals were determined after subtracting the background signal intensities using Zeiss AIM confocal software.

Flag-Plk3 (K52R) = target: T4, Flag-Plk3 (K52R) (UniProt Q9H4B4 40-646, K52R); experiment: pull-down with bead-immobilized peptide, mixed Flag-Plk1/2/3 lysates (293T)
T4 construct: In lysates of transfected cells
T4 sequence (Q9H4B4 40-646 K91R): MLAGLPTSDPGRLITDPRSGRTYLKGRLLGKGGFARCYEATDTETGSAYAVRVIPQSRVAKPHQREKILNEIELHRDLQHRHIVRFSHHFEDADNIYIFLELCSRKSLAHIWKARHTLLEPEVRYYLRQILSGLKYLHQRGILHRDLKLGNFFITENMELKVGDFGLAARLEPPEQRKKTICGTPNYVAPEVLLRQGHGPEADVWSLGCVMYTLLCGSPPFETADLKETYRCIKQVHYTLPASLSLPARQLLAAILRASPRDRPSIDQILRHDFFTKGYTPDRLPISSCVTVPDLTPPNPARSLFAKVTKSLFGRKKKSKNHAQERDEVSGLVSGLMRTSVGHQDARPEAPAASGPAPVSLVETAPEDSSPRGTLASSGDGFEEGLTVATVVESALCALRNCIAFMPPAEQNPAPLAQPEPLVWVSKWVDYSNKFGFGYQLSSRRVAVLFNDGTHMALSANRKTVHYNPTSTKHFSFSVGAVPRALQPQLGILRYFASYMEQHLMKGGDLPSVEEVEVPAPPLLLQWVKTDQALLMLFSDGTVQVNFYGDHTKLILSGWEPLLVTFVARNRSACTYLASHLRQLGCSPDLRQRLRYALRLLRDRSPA

[4] = target: Plk1 (endogenous, HeLa cells) (UniProt P53350); experiment: pull-down with bead-immobilized peptide, mitotic HeLa lysate
Plk1 (endogenous, HeLa cells), sequence (P53350 2-603 limits assumed): as the sequence (P53350 2-603) above

[5] = target: Plk1 PBD (construct and assay format not stated at these places) (UniProt P53350); experiment: assay not given
Plk1 PBD (construct and assay format not stated at these places), sequence (P53350 326-603 limits assumed): as the sequence (P53350 326-603) above

CSCC[C@H](N)C(=O)N[C@@H](CCC(N)=O)C(=O)N[C@@H](CO)C(=O)N[C@H](C(=O)N1CCC[C@H]1C(=O)N[C@@H](CC(C)C)C(N)=O)[C@@H](C)OP(=O)(O)O [MQSpTPL, reference compound]
Plk2 precipitation as efficiency of Plk1 precipitation (Plk2; lysates with similar levels of Plk1, Plk2, Plk3): ~27%

COCCOCCOCCOCCOCCOCCOCCOCCC(=O)N1CCC[C@H]1C(=O)N[C@@H](CC(C)C)C(=O)N[C@@H](Cc1cnc[nH]1)C(=O)N[C@@H](C)C(=O)N[C@H](C(N)=O)[C@@H](C)CP(=O)(O)O [PEG-1* (S/A)] ({CH3O(CH2CH2O)7C2H4CO}-PLHA[Abu(3R-Me,4-PO3H2)]-NH2)
Plk1 delocalization and misaligned chromosomes (HeLa cells [1]): not | mitotic arrest / apoptotic cell death / cellular response (HeLa cells [1]): not

COCCOCCOCCOCCOCCOCCOCCOCCC(=O)N1CCC[C@H]1C(=O)N[C@@H](CC(C)C)C(=O)N[C@@H](Cc1cnc[nH]1)C(=O)N[C@@H](CO)C(=O)N[C@H](C(N)=O)[C@@H](C)CP(=O)(O)O [PEG-1*]
Plk1 delocalization and misaligned chromosomes (HeLa cells [1]): only mild Plk1 delocalization with a moderate level of misaligned chromosomes | mitotic arrest / apoptotic cell death / cellular response (HeLa cells [1]): weak but significant level of mitotic arrest

COCCOCCOCCOCCOCCOCCOCCOCCC(=O)N1CCC[C@H]1C(=O)N[C@@H](CC(C)C)C(=O)N[C@@H](Cc1cncn1CCCCCCCCc1ccccc1)C(=O)N[C@@H](C)C(=O)N[C@H](C(N)=O)[C@@H](C)CP(=O)(O)O [PEG-4j* (S/A)] ({CH3O(CH2CH2O)7C2H4CO}-PL[His(π-(CH2)8Ph)]A[Abu(3R-Me,4-PO3H2)]-NH2)
Plk1 delocalization and misaligned chromosomes (HeLa cells [1]): not | mitotic arrest / apoptotic cell death / cellular response (HeLa cells [1]): did not

HSpT: "HSpT lacking both the Pro and Leu residues" (His-Ser-[pT])
Plk1 binding / precipitation in pull-down, in words (Plk1): did not exhibit any significant level of binding

HSpTA: 4-mer p-T78 peptide "HSpTA (SEQ ID NO: 15)" (HS[pT]A)
binding affinity by calorimetry, in words (Plk1 PBD): much lower affinities | Plk1 binding / precipitation in pull-down, in words (Plk1): bound to Plk1 better than SpTAI | disruption of the pre-formed PBD-p-Cdc25C complex [2]: disrupted the complex weakly

HSpTAI: "HSpTAI, lacking both Pro and Leu but instead bearing two additional C-terminal residues following the SpT motif" (HS[pT]AI)
Plk1 binding / precipitation in pull-down, in words (Plk1): bound to Plk1 only weakly

LHSpT: "LHSpT (SEQ ID NO: 14) lacking the N-terminal Pro" (LHS[pT])
binding affinity by calorimetry, in words (Plk1 PBD): much lower affinities | weaker binding than PLHSpT (Plk1 PBD; assay not given): ~50 fold | diminished binding affinity to Plk1 relative to PLHSpT (Plk1): ~7 fold | Plk1 binding / precipitation in pull-down, in words (Plk1): bound to Plk1 better than SpTAI | disruption of the pre-formed PBD-p-Cdc25C complex [2]: much less effective than PLHSpT; also recorded: disrupted the complex weakly

LHSpTAI: "the analogous p-T78 peptide (LHSpTAI (SEQ ID NO: 17))" (LHS[pT]AI)
binding affinity by calorimetry, in words (Plk1 PBD): slightly higher affinities than the 5-mer peptides | Plk1 binding / precipitation in pull-down, in words (Plk1): equivalent to that of the former

MLHSpT: "a Pro-4 to Met-4 mutant, MLHSpT (SEQ ID NO: 18)" (MLHS[pT])
Plk1 binding / precipitation in pull-down, in words (Plk1): greatly diminished level of Plk1 PBD binding

PLHA-Pmab: "a mutation of the invariably required Ser-1 residue to Ala {PLHA-Pmab (SEQ ID NO: 20); in short, Pmab(S77A)}" (PLHA[Abu(3R-Me,4-PO3H2)])
Plk1 binding / precipitation in pull-down, in words (Plk1): abolished the Plk1 binding

PLQSpT: "mutation of the His-2 to Gln"; "the PLQSpT mutant" of parent PLHSpT (PLQS[pT])
increase of the level of Plk2 binding (Plk2; His-2 to Gln mutant versus PLHSpT): 24 fold | initial heats of interaction (Plk2 PBD): ~-1.1 kcal/mol

Pmab(S77A): the S77A mutants of the Pmab- and the F2Pmab-containing peptides (24 and 26, respectively) (PLHA[Abu(3R-Me,4-PO3H2)])
Plk1 localization at centrosomes and kinetochores (HeLa cells [3]): not | mitotic arrest / cell cycle effect, in words (HeLa cells [3]): not

non-phospho T78 peptide: "the respective non-phospho PLHST (SEQ ID NO: 11) control peptide"
Plk1 localization at centrosomes and kinetochores (HeLa cells [3]): not | mitotic arrest / cell cycle effect, in words (HeLa cells [3]): proceeded through the cell cycle normally

B1: PEG-4j* (peptide)
peptide: {PEG}-PLH(Ph‑(CH2)8)S[Abu(3R-Me,4-PO3H2)]
modifications: reading uncertain
notes: T0009: Z = CH2, G = Ph-(CH2)8-, R1 = PEG; also called Cys-PEG-4j* (bead-immobilized form)
binding result (Flag-Plk3 (K52R)): no binding

B2: LHSpT (peptide)
peptide: LHS[pT]
fold diminished binding relative to PLHSpT [4]: 7 fold | fold weaker binding than PLHSpT [5]: 50 fold

B3: PPHSpT (peptide)
peptide: Ac-PPHS[pT]
fold diminished binding affinity [5]: 20 fold

B4: 4j (Biological Example 1) (peptide)
peptide: Ac-PLH(Ph‑(CH2)8)S[pT]
notes: also called peptide 4j; Compound 4j
binding result (Flag-Plk3 (K52R)): no binding
